Test results published in EP4653467A1 (Wuhan Zhaozhi Biotechnology Co., Ltd., dated 2025).

Biological target: T1, CD22 on RAJI cells (UniProt P20273 20-847, limits assumed)
T1 sequence (looked up): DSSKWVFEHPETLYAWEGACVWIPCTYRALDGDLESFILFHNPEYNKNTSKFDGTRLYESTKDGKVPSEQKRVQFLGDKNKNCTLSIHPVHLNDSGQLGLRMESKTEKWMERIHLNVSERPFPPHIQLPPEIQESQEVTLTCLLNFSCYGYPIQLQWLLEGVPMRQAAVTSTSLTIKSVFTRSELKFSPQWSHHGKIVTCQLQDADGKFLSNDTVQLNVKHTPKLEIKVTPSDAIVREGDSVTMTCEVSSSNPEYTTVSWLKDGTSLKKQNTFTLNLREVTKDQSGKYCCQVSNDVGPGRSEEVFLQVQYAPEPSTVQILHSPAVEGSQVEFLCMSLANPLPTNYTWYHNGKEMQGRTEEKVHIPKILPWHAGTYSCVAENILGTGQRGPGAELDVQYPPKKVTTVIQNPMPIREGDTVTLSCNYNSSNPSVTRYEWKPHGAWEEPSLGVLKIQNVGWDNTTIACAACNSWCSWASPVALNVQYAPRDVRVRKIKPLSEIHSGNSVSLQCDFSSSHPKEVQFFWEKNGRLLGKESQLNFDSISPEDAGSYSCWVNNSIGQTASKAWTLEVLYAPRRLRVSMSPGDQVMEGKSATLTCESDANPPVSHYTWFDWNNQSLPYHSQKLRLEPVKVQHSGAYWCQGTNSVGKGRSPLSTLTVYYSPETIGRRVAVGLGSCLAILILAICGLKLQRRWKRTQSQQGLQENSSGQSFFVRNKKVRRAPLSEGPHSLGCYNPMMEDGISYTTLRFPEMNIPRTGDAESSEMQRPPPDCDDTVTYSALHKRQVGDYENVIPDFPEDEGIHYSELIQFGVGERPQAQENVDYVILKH
Assay: cell-based or functional assay

B1: CAR22 (CAR molecule targeting CD22) (other)
chain: MALPVTALLLPLALLLHAAIPDTEVQLVESGGGLVKPGGSLKLSCAASGFAFSIYDMSWVRQTPEKRLEWVAYISSGGGTYYPDTVKGRFTISRDNAKNTLYLQMSSLKSEDTAMYYCARHSGYGTHWGVLFAYWGQGTLVTVSAGGGGSGGGGSGGGGSDIQMTQTTSSLSASLGDRVTISCRASQDISNYLNWYQQKPDGTVKLLIYYTSILHSGVPSRFSGSGSGTDYSLTISNLEQEDFATYFCQQGNTLPWTFGGGTKLEIKATTTPAPRPPTPAPTIASQPLSLRPEACRPAAGGAVHTRGLDFACDFWVLVVVGGVLACYSLLVTVAFIIFWVRSKRSRLLHSDYMNMTPRRPGPTRKHYQPYAPPRDFAAYRSKRGRKKLLYIFKQPFMRPVQTTQEEDGCSCRFPEEEEGGCELRVKFSRSADAPAYQQGQNQLYNELNLGRREEYDVLDKRRGRDPEMGGKPRRKNPQEGLYNELQKDKMAEAYSEIGMKGERRRGKGHDGLYQGLSTATKDTYDALHMQALPPR
  target cell lysis (calcein release), CAR-T cells on RAJI positive target cells, effector-to-target ratio 2:1: 11.5%
  target cell lysis (calcein release), CAR-T cells on RAJI positive target cells, effector-to-target ratio 10:1: 46.9%
  target cell lysis (calcein release), CAR-T cells on RAJI positive target cells, effector-to-target ratio 50:1: 94.4%
